Results reported in publication PMC2731525.

Biological target: biglycan (UniProt P21810)
Test: solid-phase binding assay

UniProt P21810, sequence (P21810 38-368): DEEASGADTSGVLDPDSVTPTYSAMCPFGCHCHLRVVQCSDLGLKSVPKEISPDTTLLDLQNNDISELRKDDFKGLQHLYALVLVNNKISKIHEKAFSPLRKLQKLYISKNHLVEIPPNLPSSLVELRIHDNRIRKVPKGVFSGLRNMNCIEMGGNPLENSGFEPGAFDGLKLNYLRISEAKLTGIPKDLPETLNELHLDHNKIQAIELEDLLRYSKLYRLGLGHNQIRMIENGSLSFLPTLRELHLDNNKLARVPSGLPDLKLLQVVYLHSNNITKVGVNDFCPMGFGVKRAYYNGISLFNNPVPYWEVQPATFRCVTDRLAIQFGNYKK

“LDL with high apoCIII from patients with type 2 diabetes (from UniProt P02656 21-99) (complex)” and “LDL with low apoCIII from patients with type 2 diabetes (from UniProt P02656 21-99) (complex)” are within 1.5-fold of each other in Kd: 8.6 nM for the first, 12.2 nM for the second.

“apoCIII-free LDL isolated from diabetic LDL with high apoCIII/apoB molar ratio (natural protein)” and “apoCIII-free LDL isolated from diabetic LDL with low apoCIII/apoB molar ratio (natural protein)” are within 1.5-fold of each other in Kd: 9.8 nM for the first, 12.8 nM for the second.
